# How the values were obtained:
# [1] = target: T1, HER2 (human, UniProt P04626); assay: BLI, 30C, ExpiCHO-expressed
# [2] = target: T1, HER2; assay: BLI, 30C, E. coli-expressed
binder,measurement,setting,value
LH_S-C (antibody) chain 1: EVQLVESGGGLVQPGGSLRLSVAASGFNIKDTYIHWVRQAPGKGLEWVARIYPTNGYTRYADSVKGRFTISADTSKNTAYLQMNSLRAEDTAVYYASRWGGDGFYCMDYWGQGTLVTVSS chain 2: not shown,Kd,[1],0.28 nM
same,Kd,[2],1.5 nM

# Source: patent US20260327336 (published 2026)
